Experimental data published in paper PMC7738341.

Tests used:
[1] = target: tubulin (microtubules) (human (endogenous in HeLa)) (UniProt P68363); test: FRAP; live HeLa cells expressing the CST, 37°C, 5% CO2; EYFP bleached in a circular ROI of 2 μm radius in the cytoplasm; recovery curves fitted by a two-phase exponential association function; the phase with lower mobility is named MTs-bound fraction
[2] = target: tubulin (microtubules) (human (endogenous in HeLa)) (UniProt P68363)

UniProt P68363, sequence (P68363 whole entry, chain 1 of 2): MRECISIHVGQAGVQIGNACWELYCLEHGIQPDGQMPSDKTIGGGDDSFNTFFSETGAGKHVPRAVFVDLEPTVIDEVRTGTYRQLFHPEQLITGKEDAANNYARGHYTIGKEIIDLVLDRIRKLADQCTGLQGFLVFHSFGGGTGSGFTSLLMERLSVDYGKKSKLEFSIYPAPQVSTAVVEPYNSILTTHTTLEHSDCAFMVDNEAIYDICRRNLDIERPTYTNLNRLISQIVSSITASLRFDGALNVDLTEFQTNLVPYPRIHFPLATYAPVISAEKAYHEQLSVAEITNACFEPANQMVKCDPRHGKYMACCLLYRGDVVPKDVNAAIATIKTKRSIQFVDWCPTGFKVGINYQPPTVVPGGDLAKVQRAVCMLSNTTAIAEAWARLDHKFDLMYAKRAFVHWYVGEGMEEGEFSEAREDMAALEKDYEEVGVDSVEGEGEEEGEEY
UniProt P68363, sequence (P07437 whole entry, chain 2 of 2, further chain): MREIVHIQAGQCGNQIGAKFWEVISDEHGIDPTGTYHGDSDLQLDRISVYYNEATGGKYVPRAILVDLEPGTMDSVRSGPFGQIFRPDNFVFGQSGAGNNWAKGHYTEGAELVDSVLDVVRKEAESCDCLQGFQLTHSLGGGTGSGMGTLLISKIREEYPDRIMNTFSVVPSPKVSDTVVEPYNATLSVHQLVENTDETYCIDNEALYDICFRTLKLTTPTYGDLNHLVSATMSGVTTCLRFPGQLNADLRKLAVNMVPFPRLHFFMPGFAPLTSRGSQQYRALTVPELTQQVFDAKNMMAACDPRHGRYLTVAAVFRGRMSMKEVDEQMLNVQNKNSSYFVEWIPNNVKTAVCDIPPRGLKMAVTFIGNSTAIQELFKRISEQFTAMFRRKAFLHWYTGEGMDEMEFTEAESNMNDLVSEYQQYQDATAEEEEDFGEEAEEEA

| MTs-bound fraction [1] | FRAP mobile fraction (Mob calc) in live HeLa cells [2] | Substance |
| --- | --- | --- |
| 61% | – | Conformational Sensitive Tau, wild type (CST^WT) (from UniProt P10636-8 1-441) (natural protein) |
| – | 79% | Conformational Sensitive Tau with the Q336H mutation (CST^Q336H) (from UniProt P10636-8 1-441) (natural protein) |
